2 molecules from US20230201322A1 can be followed below.

Common to all, as to details: remark: other sources report otherwise
In assay [1] the target is T1, HLA-A*0201 molecule expressed on the human tumoral cell T2 (human). Nature of the assay: T2 cell HLA-A2 FACS (BB7.2-PE), peptide 100 µM.
Assay [2] has as its target T1, HLA-A*0201 molecule expressed on the …. Put plainly: T2 cell HLA-A2 FACS (BB7.2-PE); ratio of 20% concentrations against HIV pol 589-597.
The target is the same in assay [3]. Nature of the assay: T2 cell HLA-A2 FACS (BB7.2-PE), peptide 10 µM.
The target is the same in assay [4]. Nature of the assay: T2 cell HLA-A2 FACS (BB7.2-PE), peptide 1 µM.
The target is the same in assay [5]. Put plainly: T2 cell HLA-A2 FACS (BB7.2-PE), peptide titration.
The target is the same in assay [6]. Put plainly: T2 cell HLA-A2 FACS (BB7.2-PE), peptide 0.1 µM.

On to VVLGVVFGI [reference human peptide derived from ERBB2, ERBB2-3H (…)], for which the HLA-A2 labelling as % of reference peptide HIV pol 589-597 at 100 µM is 196% in assay [1], 11.9% in assay [3], -24% in assay [4] and -12.6% in assay [6]. In addition, in assay [2], the Relative affinity turned out to be 0.45. The Conc. inducing 20% of HLA-A2 expression in assay [5] stood at 16.3 µM.
Consider VLLGVVFGV [antigenic peptide ERBB2-3B2 (…)], for which the HLA-A2 labelling as % of reference peptide HIV pol 589-597 at 100 µM was 336% in assay [1], 57% in assay [3], 1.51% in assay [4] and -14.6% in assay [6]. Besides, in assay [2], the Relative affinity amounted to 0.19. In assay [5], this molecule yielded a Conc. inducing 20% of HLA-A2 expression of 6.9 µM.
